Experimental data from patent publication US20170267757A1.

Experiments:
Assay in all cases: sandwich ELISA, antibody as capture 100 ng/well, CHO-K1 supernatant, anti-human Ig-HRP
[1] = target: CD66c mutant (HPK/HdIII/PstI/klenow)-hFc (human)
[2] = target: CD66c-HuIgFc recombinant antigen (human)
[3] = target: CD66c mutant (BI/BHI)-hFc (human)
Sequence of CD66c mutant (BI/BHI)-hFc (human) (chain, as listed by the source mutant limits assumed, form in doubt): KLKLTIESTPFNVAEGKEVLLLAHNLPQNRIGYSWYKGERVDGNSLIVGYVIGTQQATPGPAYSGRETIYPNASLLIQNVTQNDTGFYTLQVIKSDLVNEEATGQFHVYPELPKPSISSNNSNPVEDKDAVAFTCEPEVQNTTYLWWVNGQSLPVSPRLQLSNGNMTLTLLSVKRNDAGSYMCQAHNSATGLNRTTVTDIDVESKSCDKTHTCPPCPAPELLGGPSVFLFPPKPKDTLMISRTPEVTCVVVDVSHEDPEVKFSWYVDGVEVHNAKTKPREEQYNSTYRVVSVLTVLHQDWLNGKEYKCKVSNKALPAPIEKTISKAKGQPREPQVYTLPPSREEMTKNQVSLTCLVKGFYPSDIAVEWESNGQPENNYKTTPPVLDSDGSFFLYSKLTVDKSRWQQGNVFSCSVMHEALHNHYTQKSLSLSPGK

Sequence of CD66c mutant (HPK/HdIII/PstI/klenow)-hFc (human) (chain, as listed by the source mutant limits assumed, form in doubt): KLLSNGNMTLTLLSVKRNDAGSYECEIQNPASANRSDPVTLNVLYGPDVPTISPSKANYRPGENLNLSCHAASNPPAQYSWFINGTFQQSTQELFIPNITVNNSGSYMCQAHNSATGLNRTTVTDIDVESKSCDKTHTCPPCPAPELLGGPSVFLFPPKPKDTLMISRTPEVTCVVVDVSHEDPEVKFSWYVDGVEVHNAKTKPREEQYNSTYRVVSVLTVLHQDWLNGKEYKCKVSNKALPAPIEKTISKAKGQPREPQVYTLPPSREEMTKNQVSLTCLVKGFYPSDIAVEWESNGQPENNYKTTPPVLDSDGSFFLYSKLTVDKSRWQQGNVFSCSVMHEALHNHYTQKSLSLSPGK
Sequence of CD66c-HuIgFc recombinant antigen (human) (chain, as listed by the source limits assumed): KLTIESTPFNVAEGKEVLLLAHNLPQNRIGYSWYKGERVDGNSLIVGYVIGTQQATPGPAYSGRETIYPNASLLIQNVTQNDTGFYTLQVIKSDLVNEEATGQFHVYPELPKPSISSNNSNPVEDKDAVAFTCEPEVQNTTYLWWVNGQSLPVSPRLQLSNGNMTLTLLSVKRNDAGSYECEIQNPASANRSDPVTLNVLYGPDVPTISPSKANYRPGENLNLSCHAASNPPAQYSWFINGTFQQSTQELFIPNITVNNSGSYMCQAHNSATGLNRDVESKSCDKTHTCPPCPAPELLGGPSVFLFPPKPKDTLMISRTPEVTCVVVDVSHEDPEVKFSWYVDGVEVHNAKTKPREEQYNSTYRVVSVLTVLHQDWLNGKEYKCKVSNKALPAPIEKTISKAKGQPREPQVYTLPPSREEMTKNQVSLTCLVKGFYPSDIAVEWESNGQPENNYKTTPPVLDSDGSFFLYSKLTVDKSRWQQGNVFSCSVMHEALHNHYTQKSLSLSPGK

absorbance at 450 nm (absorbance at 450 nm) [1]: 0.049
absorbance at 450 nm (absorbance at 450 nm) [2]: 2.84
absorbance at 450 nm (absorbance at 450 nm) [3]: 1.92
Substance: 9A6 anti-CD66c monoclonal antibody (Santa Cruz)
